From patent US20250270304A1 (PHENOMIC AI, published 2025) come the findings set out here.

Where a chain is given by its changes, count along the chain named.

Experiment [1] concerns the target T1, Inhibin A (Homo sapiens (Human), UniProt P05111 233-366; P08476 311-426).
T1 sequence 1: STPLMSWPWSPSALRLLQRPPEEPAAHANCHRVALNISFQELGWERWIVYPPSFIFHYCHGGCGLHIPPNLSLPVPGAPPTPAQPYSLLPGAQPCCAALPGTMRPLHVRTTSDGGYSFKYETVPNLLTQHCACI
T1 sequence 2: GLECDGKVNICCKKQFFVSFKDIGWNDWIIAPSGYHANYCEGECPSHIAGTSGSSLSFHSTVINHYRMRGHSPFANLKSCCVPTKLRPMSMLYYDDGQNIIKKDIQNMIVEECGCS
The experiment is described as follows: ELISA, coated antigen, OD450.

The target in experiment [2] is T2, Latent Activin A (human, UniProt P08476 21-426, limits assumed).
T2 construct: also called INHBA latent
T2 sequence: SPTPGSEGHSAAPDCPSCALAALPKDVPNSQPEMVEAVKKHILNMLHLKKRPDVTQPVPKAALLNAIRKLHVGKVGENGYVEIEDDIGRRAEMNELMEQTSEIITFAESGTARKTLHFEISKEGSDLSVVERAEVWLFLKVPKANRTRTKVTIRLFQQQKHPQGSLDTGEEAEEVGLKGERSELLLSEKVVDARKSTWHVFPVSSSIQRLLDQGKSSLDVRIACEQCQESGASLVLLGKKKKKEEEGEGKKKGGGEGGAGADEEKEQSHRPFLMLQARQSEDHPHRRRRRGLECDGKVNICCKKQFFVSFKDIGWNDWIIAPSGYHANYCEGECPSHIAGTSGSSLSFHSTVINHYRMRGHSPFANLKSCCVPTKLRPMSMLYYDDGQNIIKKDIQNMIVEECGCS
The experiment is described as follows: ELISA, coated antigen, OD450. How it is done:
(§1) Antibodies were re-expressed in 40 mL cultures of Expi293 cells and purified using protein G magnetic sepharose beads (Cytiva, Marlborough, MA) to provide larger quantities for secondary screening. Secondary screening included dose responses in both functional assays described above (SMAD nuclear localization and fibroblast activations assays) as well as in binding assays to the same antigens listed in Table 3. Plates were coated with 25 μL of 3 μg/mL antigen in 384-well Maxisorp plates overnight at 4° C. with agitation. The next day, the samples in the plates were blocked with 70 μL blocking buffer (PBS+1% BSA+0.1% Tween-20) for 2 hours at room temperature. Plates were then washed three times with 100 μL of wash buffer (PBS+0.1% Tween-20). Primary antibodies in Expi293 expression medium were diluted 1:3 in blocking buffer, 25 μL added per well, and the plates were incubated for an hour at room temperature with agitation. Plates were then washed three times and 25 μL of secondary antibody (goat anti-Human IgG, HRP conjugated; Jackson Immunoresearch) diluted 1:5000 in blocking buffer was added for 30 minutes at room temperature. The wells in the plates were washed six times with wash buffer and TMB substrate was added followed by 1 M H3PO4.
(In an ELISA, binding on a coated surface is turned into a signal by an enzyme label.)

For experiment [3], the target named is T3, Mature Activin A (human, UniProt P08476 311-426).
T3 construct: also called active Activin A; INHBA mature
T3 sequence: T1 sequence 2
Nature of the experiment: ELISA, coated antigen, OD450. How it is done: as §1

The target in experiment [4] is T4, Activin B (Homo sapiens (Human), UniProt P09529 293-407).
T4 construct: also called Mature Activin B; mature Activin B
T4 sequence: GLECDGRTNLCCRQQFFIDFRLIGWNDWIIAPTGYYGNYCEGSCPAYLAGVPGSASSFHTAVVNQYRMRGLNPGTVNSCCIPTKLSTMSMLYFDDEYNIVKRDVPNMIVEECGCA
Nature of the experiment: ELISA, coated antigen, OD450. As to the method: as §1

Experiment [5] deals with T1, Inhibin A. Nature of the experiment: ELISA, coated antigen, OD450. As to the method: as §1
This is another data set of the same source.

Experiment [6] deals with T4, Activin B. The experiment is described as follows: ELISA, coated antigen, OD450. The source holds these as a separate data set.
Experiment [7] addresses T2, Latent Activin A. The experiment is described as follows: ELISA dose-response, coated antigen. As to the method: as §1
Experiment [8] concerns the target T3, Mature Activin A. Nature of the experiment: ELISA dose-response, coated antigen. How it is done:
as §1

Experiment [9] addresses T4, Activin B. Nature of the experiment: ELISA dose-response, coated antigen. As to the method:
as §1

The target in experiment [10] is T1, Inhibin A. The experiment is described as follows: ELISA dose-response, coated antigen (row 'Inhibin'). How it is done:
as §1

B1: AB432 (antibody, IgG1, V domains shown)
VH: QVQLQESGPGLVKPSQTLSLTCTVSGVSLSNVRMGVNWIRQPPGKGLEWIGYVNPSGSTDYNPSLKSRVTMSVDTSKNQFSLKVNSVTAADTAVYYCARAGYPDVWGKGTLVTVSS
VL: EIVMTQSPATLSLSPGERATLSCRASQSISSSQLAWYQQKPGQAPRLLIYGASTRATGIPARFSGSGSGTDFTLTISSLEPEDFAVYYCQQYNDRPRTFGGGTKVEIK
For B1, in experiment [1], the binding result was “no binding (tested: 1.40-fold over BSA)”. The “fold-change of OD 450 over negative control (BSA)” value (“fold-change” below) was found to be 10.4 fold in experiment [2], 8.86 fold in experiment [3], 1.72 fold in [4] and 0.74 fold in experiment [5].

B2: AB350 (antibody, IgG1, V domains shown)
VH: B1 VH with N31D, V32A, N54S, P55T, S56T, S58T
VL: EIVMTQSPATLSLSPGERATLSCRASESVRSNLAWYQQKPGQAPRLLIYGASNRASGIPARFSGSGSGTDFTLTISSLEPEDFAVYYCQQYHTWPPWAFGGGTKVEIK
Turning to B2, the binding result in experiment [6] and in [1] was “no binding (tested: 1.40-fold over BSA)” in each case. Further, the “fold-change” value is 7.33 fold in experiment [2], 10.6 fold in experiment [3], 0.74 fold in experiment [4] and 0.65 fold in experiment [5].

B3: AB347 (antibody, IgG1, V domains shown)
VH: B1 VH with V27F, S28P, N31T, V32S, V53I, S58A, L111T
VL: EIVMTQSPATLSLSPGERATLSCRASQNIGHSLAWYQQKPGQAPRLLIYGASIRAPGIPARFSGSGSGTDFTLTISSLEPEDFAVYYCQQYITWPSTFGGGTKVEIK
Take B3: the “fold-change” value in experiment [2] came out at 10.2 fold; in [3], 10.2 fold; in experiment [4], 2.54 fold; in [5], 0.74 fold. Besides, the concentration for a half-maximal effect (EC50) (usually the concentration giving half of the maximal effect) in experiment [7] is 2.46 nM; in experiment [8], 0.72 nM; in [9], 0.95 nM.

B4: AB353 (antibody, IgG1, V domains shown)
VH: B1 VH with V27L, V32A, R33K, N54S, P55T, S56T, S58T, L111T
VL: EIVMTQSPATLSLSPGERATLSCRASQNVYTNLAWYQQKPGQAPRLLIYGASARASGIPARFSGSGSGTDFTLTISSLEPEDFAVYYCLQYGSSPPLFGGGTKVEIK
For B4, the binding result in [6] and in [1] was “no binding (tested: 1.40-fold over BSA)” in each case. For the same molecule, the “fold-change” value worked out at 4.4 fold in experiment [2], 8.98 fold in experiment [3], 0.72 fold in experiment [4] and 0.61 fold in experiment [5].

B5: AB352 (antibody, IgG1, V domains shown)
VH: B1 VH with V27F, S28P, N31T, V32S, V53I, S58A, L111T
VL: EIVMTQSPATLSLSPGERATLSCRASQSVSTHLAWYQQKPGQAPRLLIYDATNRATGIPARFSGSGSGTDFTLTISSLEPEDFAVYYCLQYTNYPWTFGGGTKVEIK
In the case of B5, in experiment [1], the binding result is given as “no binding (tested: 1.40-fold over BSA)”. Moreover, the “fold-change” value in [2] was found to be 15.2 fold; in experiment [3], 16.2 fold; in experiment [4], 2.03 fold; in [5], 0.61 fold.

B6: AB326 (antibody, IgG1, V domains shown)
VH: QVQLVQSGAEVKKPGASVKVSCKVSGYTFTSSAISWVRQAPGKGLEWMGGIYPGSGHTIYAQKFQGRVTMTEDTSTDTAYMELSSLKSEDTAVYYCAREGDIFVMDVWGLGTAVTVSS
VL: DIQMTQSPSSVSASVGDRVTITCRASMDIRNDLAWYQQKPGKAPKLLIYDASKLETGVPSRFSGSGSGTDFTLTISSLQPEDFANYYCQQAKSFPPTFGGGTKVEIK
B6: the binding result in experiment [6] is given as “no binding (tested: 1.40-fold over BSA)”. The “fold-change” value in experiment [2] was 5.91 fold; in [3] it was 6.01 fold; in [4] it was 0.58 fold; in [5], 8.53 fold.

B7: AB340 (antibody, IgG1, V domains shown)
VH: EVQLVESGGGLVQPGGSLRLSCAASGFTASRNYMSWVRQAPGKGLELVASISGSGDYTYYPDSVKGRFTISRDNAKNSLYLQMNSLRAEDTAVYYCARSPRGPRLLGYYYGMDVWGQGTTVTVSS
VL: DIVMTQSPLSLPVTPGEPASISCRSSRSLVHGSGHNYLHWYLQKPGQSPQLLIYGASTRVAGVPDRFSGSGSGTDFTLKISRVEAEDVGVYYCMQGTQAPRTFGGGTKVEIK
With B7, the binding result in experiment [6] and in experiment [1] was “no binding (tested: 1.40-fold over BSA)” throughout. Besides, the “fold-change” value in experiment [2] worked out at 1.9 fold; in experiment [3], 2.33 fold; in experiment [4], 1.04 fold; in experiment [5], 1.11 fold.

B8: AB843 (antibody, IgG1, V domains shown)
VH: EVQLVQSGAEVKKPGASVKVSCKASGDTSSHSHIHWVRQAPGQGLEWMGWINPRSGATNYAQKLQGRGTMTTDPSTSTAYMELRSLRSDDTAVYYCARDRGGRTNGVGAFDIWGQGTMVTVSS
VL: ESALTQPASVSGSPGQSITISCTGTSGDIGRYNYVSWYQQHPGKAPKLMIYEDIERPSGVSNRFSGSKSGNTASLTISGLQAEDEADYYCQVWDATLDLVFGGGTKLTVL
Regarding B8, the “fold-change” value in experiment [2] is 24.9 fold; in experiment [3], 24.7 fold; in experiment [4] it was 24.6 fold; in [5], 22.9 fold. Moreover, the EC50 in [7] stood at 0.04 nM; in experiment [8] it was 0.02 nM; in experiment [9] it was 0.03 nM; in experiment [10] it was 0.05 nM.

B9: AB854 (antibody, IgG1, V domains shown)
VH: EVQLVQSGAEVKKPGASVKVSCKASGYTFPSHYISWVRQAPGQGLEWMGGMNPITGHTIYAQKLQGRGTMTTDPSTSTAYMELRSLRSDDTAVYYCARDMRYDILPGRSYYYGMDVWGQGTTVTVSS
VL: ESALTQPASVSGSPGQSITISCTGTTGSIASNYVSWYQQHPGKAPKLMIYDTTNRPPGVSNRFSGSKSGNTASLTISGLQAEDEADYYCQSTERGRSDVIFGGGTKLTVL
notes: also called clone 854
For the molecule B9, the EC50 is 1 nM in experiment [7], 0.03 nM in [8] and 0.27 nM in experiment [9].

B10: AB731 (antibody, IgG1, V domains shown)
VH: QVQLQQPGTELVKPGASVKLSCKASGYTFTSYWMHWVKQRPGQGLEWIGNINPSNGGTNYNEKFKSKATLTVDKSSSTAYMQLSSLTSEDSAVYYCSITTVVAYWYFDVWGTGTTVTVSS
VL: ENVLTQSPAIMSASPGEKVTISCSASSSVSYMYWYQQKPGSSPKPWIFRTYNLASGVPARFSGSGSGTSYSLTISNMEAEDAATYYCQQRSSYPWTFGGGTKLEIK
notes: also called clone 731
With B10, the concentration giving a half-maximal response (EC50) in [7] came to 0.87 nM; in [8], 0.42 nM; in experiment [9], 0.49 nM.
